Source: US11672846B2, “Soluble bacterial and fungal proteins and methods and uses thereof in inhibiting and dispersing biofilm” (priority 2014, dated 2023)
“Also recorded” adds a separate entry of the source. Where two headings read alike, the source gives them in different places.

Columns and labels:
A. fumigatus GAG biofilm = test: Inhibition of GAG-dependent A. fumigatus biofilm formation (crystal violet); assay type: cell-based
[1] = tested on: Botrytis cinerea isolate 7b1; test: Lectin staining of Botrytis cinerea hyphae after hydrolase treatment; assay type: cell-based; conditions: 1 μM
Protocol: Botrytis cinerea isolate 7b1 was inoculated at a concentration of 6×10^3 conidia/ml in 500 μl of Brian media on poly-D-lysine-coated coverslips (Corning, Bedford, Mass.) for 17 h at room temperature, in the dark. Samples were incubated either in the presence or absence of 1 μM Sph3AC(54-304). Media was then removed and the hyphae were incubated in PBS with or without 1 μM Sph3AC(54-304) for 1 h at room temperature. Samples were washed twice with PBS, and stained with 30 μg/mL of Wisteria fluoribunda (WFL) lectin conjugated to fluoresceine for 2 h at 4° C. Samples were washed twice with PBS, and fixed with 4% paraformaldehyde for 10 min at 4° C. Samples were washed once and stained with a 1:1000 dilution of DRAQ5™ (eBioscience, San Diego, Calif.) for 5 min at room temperature. Samples were washed once with PBS, mounted onto microscope slides using SlowFade® Gold antifade reagent (life Technologies™, Eugene, Oreg.), and sealed with nail polish. Images were acquired on an Olympus Fluoview confocal laser microscope using 488 and 633 nm lasers coupled with BA505-525 and BA650IF filters, respectively. Z-stacks of 0.2 μm increments were acquired, and 3D-rendered using ImageJ software (National Institutes of Health).

Trichosporon asahii = test: SBA-FITC lectin staining of Trichosporon asahii after hydrolase treatment; assay type: cell-based; conditions: 0.5 μM, 3 h
Protocol: To assess the effects of hydrolase treatment on Trichosporon asahii, 1×10^5 T. asahii yeast cells or A. fumigatus conidia were inoculated in Dulbecco's Modified Eagle Medium (DMEM), and grown for 10 h at 37° C., 5% CO2 on glass coverslips. Wells were gently washed once with Ham's F-12K (Kaighn's) Medium (F12K) media, and Sph3AC(54-304) was added at a final concentration of 0.5 μM in F12K, and incubated for an additional 3 h at 37° C., 5% CO2. Young hyphae were washed twice with PBS, and stained with FITC tagged SBA for 1 h. The stained samples were washed with PBS and fixed with 4% PFA for 15 min. Slides were then mounted, sealed, and imaged under confocal microscopy with a 488 nm laser (Zeiss).

[2] = tested on: pre-formed A. fumigatus GAG biofilms; assay type: cell-based; conditions: crystal violet
[3] = tested on: RFP-expressing Af293 hyphae; test: Uptake of Bodipy-conjugated posaconazole by hyphae (confocal microscopy); assay type: cell-based, A. fumigatus; conditions: 0.5 μM pretreatment 90 min
Protocol: Red Fluorescent Protein (RFP)-expressing Af293 hyphae were pretreated with 0.5 μM Sph3AC(54-304) hydrolase for 90 min before treatment with Bodipy-conjugated posaconazole (BDP-PCZ). At various time points, samples were fixed and imaged using fluorescent confocal microscopy to determine the kinetics of drug penetration of hyphae.

[4] = tested on: A549 pulmonary epithelial cell line injured by A. fumigatus; test: Chromium release epithelial cell damage assay; conditions: recombinant Sph3 hydrolases, up to 24 h
[5] = tested on: preformed A. fumigatus biofilm; test: Ega3 disruption of preformed A. fumigatus biofilm; assay type: cell-based; conditions: 1 μM, 1.5 h, room temperature
Protocol: To determine the effect hydrolase has on a preformed biofilm, 10^5 A. fumigatus conidia were inoculated per well in DMEM media as above, but in the absence of hydrolase. Following 18 h incubation at 37° C., 5% CO2, the resulting biofilm was treated with Ega346-318 at a final concentration of 1 μM for 1.5 h at room temperature on a nutator. The biofilms were then washed and stained as mentioned above.

A. fumigatus = test: Ega3 inhibition of A. fumigatus biofilm formation (crystal violet, imaged); assay type: cell-based; conditions: 1 μM, 18 h
Protocol: A. fumigatus conidia were inoculated into polystyrene, round-bottom 24-well plates at a concentration of 10^5 conidia/well in DMEM media. To assess the inhibition of biofilm formation, Ega346-318 was added at a final concentration of 1 μM and the conidia incubated for 18 h at 37° C., 5% CO2. The resulting biofilms were then gently washed twice with distilled water, and stained with 0.1% crystal violet for 10 min. Samples were washed twice with water and the wells were imaged.

A. fumigatus hyphae = test: SBA-FITC lectin staining of A. fumigatus hyphae after Ega3 treatment; assay type: cell-based; conditions: 0.5 μM, 3 h
[6] = tested on: Pel biofilms of P. aeruginosa PAO1 ΔwspFΔpslpBADpel; test: Dispersal of pre-formed Pel biofilms (crystal violet)
Excerpt: The methodology to generate pre-formed Pel biofilms is identical to that of Psl biofilms, described in Example 4 with the exception that the strain used is P. aeruginosa PAO1 ΔwspFΔpslpBADpel.

[7] = tested on: P. aeruginosa PAO1 ΔwspFΔpslpBADpel; test: Inhibition of Pel biofilm formation in static culture (crystal violet); conditions: read-out: EC50 of Pel biofilm inhibition; static PAO1ΔwspFΔpslPBADpel culture
[8] = Reducing sugar assay on dPNAG; assay type: biochemical, S. aureus
Protocol: Isolated dPNAG from S. aureus strain MN8m was solubilized in 6 N HCl at ˜10 mg/mL. 10 N NaOH was used to titrate the re-suspension until neutrality was reached, ˜pH 7-8. In a 50 μL reaction, 1 μM BpsB318-670 was incubated with 1-5 mg/mL of dPNAG in 100 mM HEPES pH 7.0 for 18 hours. The sample was split into two 20 μL aliquots and treated with DTT/3-Methyl-2-benzothiazolinone hydrazone hydrochloride hydrate and heated at 80° C. for 15 minutes. A solution of 0.5% (w/w) iron (III) ammonium sulfate dodecahydrate, 0.5% (w/w) sulfamic acid, and 0.25 N hydrochloric acid was added, mixed, and cooled to room temperature. […] Protein and dPNAG in buffer H were used as background controls.

[9] = tested on: PNAG-overproducing E. coli biofilms; test: Dispersal of pre-formed PNAG-dependent E. coli biofilms; conditions: read-out: EC50 of degradation of pre-formed E. coli biofilm; 60 min, average starting OD595 of 0.5
Protocol: Bacterial cultures expressing Psl were inoculated as stated above and were grown at 37° C. overnight with shaking at 200 rpm. All cultures were diluted in 1:100 in LB and arabinose was added to a final concentration of 0.5% (w/v) to induce Psl biosynthesis. Media containing the Psl-producing cultures were supplemented with 200 μg/mL ampicillin and 100 μg/mL kanamycin. The cultures were incubated statically for 24 h at 26° C. to allow for biofilm formation. After incubation non-adherent cells and media were removed by washing the plate with deionized water three times. The wells were filled with 95 μL of 100 mM sodium HEPES buffer pH 7.0 followed by 5 μL of varying concentrations of each hydrolytic enzyme (2 nM-5 μM). Reactions were allowed to proceed for up to 60 min at 25° C. on a rotating nutator at which time, the reaction was quenched by washing the plates with deionized water. The wells were stained with 200 μL of 0.1% (w/v) crystal violet for 10 min, and washed with water three times. Crystal violet dye from Psi cultures was solubilized in 100 μL of 95% ethanol for 10 min with rotation, after which time the absorbance was measured at 595 nm using a SpectraMax M2 from Molecular Devices (Sunnyvale, Calif.). The amount of biofilm is proportional to the absorbance from staining with crystal violet (Merritt et al 2005). All reactions were completed in at least triplicate and 100 mM sodium HEPES buffer pH 7.0 was used as an untreated control. The addition of 2.5 mg/mL kanamycin to culture prior to biofilm formation was used as a positive control as no cell growth occurs.
PNAG-overproducing E. coli was grown at 37° C. overnight in LB broth supplement with 200 ug/mL ampicillin and 100 ug/mL kanamycin with shaking at 200 rpm. An E. coli μgaABCD knockout strain was used as a non-biofilm forming control for background straining.

[10] = tested on: PNAG-overproducing E. coli; test: Inhibition of PNAG-dependent E. coli biofilm formation (crystal violet); conditions: read-out: EC50 of E. coli biofilm formation prevention, static 24 h at 26° C.
Protocol: In brief, PNAG-overproducing E. coli or S. carnosus was grown at 37° C. overnight in LB broth supplement with 200 μg/mL ampicillin and 100 μg/mL kanamycin, and 10 μg/mL tetracycline, respectively, with shaking at 200 rpm. Fresh cultures with antibiotic were prepared from the overnight culture using a 1:100 dilution, using LB broth for E. coli, and tryptic soy broth for S. carnosus. 95 μL of diluted culture was added to a sterile 96-well polystyrene round bottom microtiter plate and varying concentrations of protein (2 nM-5 μM) were added in 5 μL aliquots to give a final volume of 100 μL. The cultures were incubated statically for 24 h at 26° C. for E. coli, and 37° C. for S. carnosus, to allow for biofilm formation. To eliminate edge-effects, ˜200 μL of sterile water was placed in all outside wells and the plate was sealed with parafilm. After incubation non-adherent cells and media were removed by washing the plate with deionized water three times. The wells were stained with 150 μL of 0.1% (w/v) crystal violet for 10 min, and washed with water three times. The remaining dye was solubilized with 100 μL of 33% (v/v) acetic acid for 10 min with rotation, after which time the absorbance was measured at 595 nm using a SpectraMax M2 from Molecular Devices (Sunnyvale, Calif.). […] All reactions were completed in at least triplicates and buffer G was used as an untreated control. Either an E. coli pgaABCD knockout strain (DPGA) or S. carnosus treated with gentamycin, was used as a control for background straining.

S. carnosus = test: Inhibition of PNAG-dependent S. carnosus biofilm formation; conditions: 5 μM, preliminary testing
Protocol: In brief, PNAG-overproducing E. coli or S. carnosus was grown at 37° C. overnight in LB broth supplement with 200 μg/mL ampicillin and 100 μg/mL kanamycin, and 10 μg/mL tetracycline, respectively, with shaking at 200 rpm. Fresh cultures with antibiotic were prepared from the overnight culture using a 1:100 dilution, using LB broth for E. coli, and tryptic soy broth for S. carnosus. 95 μL of diluted culture was added to a sterile 96-well polystyrene round bottom microtiter plate and varying concentrations of protein (2 nM-5 μM) were added in 5 μL aliquots to give a final volume of 100 μL. The cultures were incubated statically for 24 h at 26° C. for E. coli, and 37° C. for S. carnosus, to allow for biofilm formation. To eliminate edge-effects, ˜200 μL of sterile water was placed in all outside wells and the plate was sealed with parafilm. After incubation non-adherent cells and media were removed by washing the plate with deionized water three times. The wells were stained with 150 μL of 0.1% (w/v) crystal violet for 10 min, and washed with water three times. The remaining dye was solubilized with 100 μL of 33% (v/v) acetic acid for 10 min with rotation, after which time the absorbance was measured at 595 nm using a SpectraMax M2 from Molecular Devices (Sunnyvale, Calif.). […] All reactions were completed in at least triplicates and buffer G was used as an untreated control. […]

B1: Sph3AC(54-304): Sph3 ortholog residues 54-304, Aspergillus clavatus NRRL 1, SEQ ID NO: 22 (protein, listed as Aspergillus clavatus)
chain: MGPKSKVFVPLYVYPAPGAWDPLEDVISKHPDVNFTVVINPGSGPGPEALPDGNYTREIPKLASYENVRLLGYVATTYAKRNISEVRRDIETYAAWPTQSSNANLAVRGIFFDETPQQYDADILAYLRELTDVVKGTSGLGPDHYVVHNPGAIPDSRYLSTADSTVVFEATYATFQERHGAELFDTIPDSHRDQLCAVIHSVPTSVEGSDLRGLVKQVRQVADEIFITHLETDYYAGFGGQWSEFVDLMAS
A. fumigatus GAG biofilm
  inhibition of A. fumigatus biofilm formation by recombinant Sph3 (in words): inhibit the formation of A. fumigatus biofilms in a dose dependent manner
[1]
  GAG exopolysaccharide on B. cinerea hyphae after treatment: complete loss of this exopolysaccharide
Trichosporon asahii
  surface GalNAc exopolysaccharide of T. asahii after treatment: complete loss
[2]
  dispersal of pre-formed GAG biofilm (in words): capable of disrupting GAG-dependent biofilms
[3]
  uptake of fluorescent-tagged posaconazole by hyphae: increases the activity of antifungals; also recorded: increased the speed and degree of uptake
[4]
  epithelial cell damage by A. fumigatus, chromium release: completely protected epithelial cells from damage by A. fumigatus for 24 h
[4]; listed as Sph3 from A. clavatus
  epithelial cell damage by A. fumigatus, chromium release: reduced fungal damage to epithelial cells

B2: Ega346-318: soluble Ega3 residues 46-318, Aspergillus fumigatus Af293, SEQ ID NO: 21 (protein, listed as Aspergillus fumigatus)
chain: GLGGGGGGEGEEGSGGETTPPEGNYTTAKWQPAVGTKWQIELLYALNDTSVDAEIYDIDLFINDKSTIAGLQRAGRKVICYFSAGSYENWRPDKDKFKDSDLGHDLDDWPGEKWLNISSANVRQIMLDRLDMARDKGCDGVDPDNVDGYDNDNGLDLTQADSISFVNFLANAAHARNMSIGLKNAGDIIPSVIKNMQWSVNEQCAQYNECDTYAVFPQNGKPVFHIEYPKGDKTNNDLSVTASQKNAACDFAGSANFSTVIKNMNLNNWVEYC
[5]
  effect on preformed 18 h A. fumigatus biofilm: allowed for disruption of the biofilm
A. fumigatus
  A. fumigatus biofilm formation / adherence in presence of enzyme: prevented biofilm formation; also recorded: completely non-adherent
A. fumigatus hyphae
  detectable GalNAc on hyphal surface after treatment: complete loss of detectable

B3: PelA35-291: PelA residues 35-291 from P. protogens Pf-5, SEQ ID NO: 13 (protein, listed as Pseudomonas protogens)
chain: AAPASVGFWYAEQPPLQELAQFEWAVVEPGHMASADVATLRKLGSQPFAYLSVGEFDGNRAALAKQALAQGASPVRNKAWDSQVMDIATPAWREHLFKRAKALQDQGYAGLFLDTLDSFQLLPEADREPQRKALASFLRELHSRLPNLKLFFNRGFEVLGELDGVASAVAVESIHAGWDASAKRYRPVSEADRTWLEGELKPLRARNIPLVAIDYLPANRREEARKLVRQLSQEGFIPVVTTPDLNALSMSTVEVQP
[6]; 1 μM enzyme
  time to disperse pre-formed Pel biofilm: 30 min
[6]; 10-fold dilution of 1 μM, 1 h
  dispersal of pre-formed Pel biofilm (in words): disperse nearly all the biofilm
[7]
  EC50: 69.3 ± 1.2 nM
A. fumigatus GAG biofilm; 20 h in Brian media, crystal violet, listed as P. protogens PelA35-291
  prevention of GAG biofilm formation (in words): shown to prevent GAG-dependent biofilm formation
[2]
  dispersal of pre-formed GAG biofilm (in words): elimination of the GAG biofilm
[2]; listed as P. protogens PelA35-291
  dispersal of pre-formed GAG biofilm (in words): elimination of the GAG biofilms

B4: BpsB318-670: BpsB C-terminal hydrolase domain residues 318-670, SEQ ID NO: 19 (protein, listed as Bordetella bronchiseptica)
chain: PIERIVQVDLDYIYDPDPEQQNRNLGQLIDRMKDLAPSAVYLQAFADPKGDGDITEVYFPNRHLPMRADLFNRVAWQLKTRAGVMVYAWLPVLTFSVPPGNPAYGKVVQSTTRKPGERGLGSPTRLSPFHPDAHRVISEIYEDLAKAAHFDGLLFHDDAVLDDTEDSSPEALATYQGWGLPPDIAAIRADPKLAQQWSKGKIRYLIDFTMHLRHIVSGYQNDRDMVVARNLYAQPVLDPVSEAWYGQSLPEFLKSYDFVALMAMPNMEGAARPEQWMRQLVAAVARQKGLDRTIFELQARDWRVGKPIDTEILRRQMVQLRSLGAINYGYYPDDFIANHPDAEALRDVMSLKS
[8]
  dPNAG hydrolysis (in words): hydrolyze dPNAG
[9]
  EC50: ~90 nM
[10]
  EC50: ~60 nM
S. carnosus
  inhibition of S. carnosus biofilm formation (in words): can inhibit biofilm formation
